Measured values taken from publication PMC9675734.

What was measured:
[1] = target: soluble domain of Arabidopsis thaliana cytochrome c1 (Arabidopsis thaliana) (UniProt Q9FKS5); test: SPR; SPRi; Cc1 immobilised by direct amine coupling on a CS SPRi-Biochip (10 and 15 uM drops); WT or Y48pCMF Cc flowed at 2.5 to 10 uM, 50 uL/min; 298 K; 10 mM sodium phosphate buffer pH 6.5; reference spots with rabbit serum albumin subtracted; 1:1 binding model
[2] = target: soluble domain of Arabidopsis thaliana cytochrome c1 (Arabidopsis thaliana) (UniProt Q9FKS5)
Target sequence in this assay (Q9FKS5 64-265): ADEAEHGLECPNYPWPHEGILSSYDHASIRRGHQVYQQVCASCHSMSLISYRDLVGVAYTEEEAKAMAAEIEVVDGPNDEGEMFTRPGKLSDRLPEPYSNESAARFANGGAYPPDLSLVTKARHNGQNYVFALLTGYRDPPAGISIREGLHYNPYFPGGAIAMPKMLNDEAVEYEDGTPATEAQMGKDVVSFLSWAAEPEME

[3] = target: soluble domain of Arabidopsis thaliana cytochrome c1 (Arabidopsis thaliana) (UniProt Q9FKS5); test: single-molecule force spectroscopy (AFM); Cc1 anchored on Au(111); Cc (E104C) anchored to the silicon AFM tip through a PEG27 linker; retraction at 1 um/s; 50 mM phosphate buffer pH 6.5; room temperature
Target sequence in this assay (Q9FKS5 64-265): as above

[4] = target: soluble domain of Arabidopsis thaliana cytochrome c1 (Arabidopsis thaliana) (UniProt Q9FKS5); test: dynamic force spectroscopy (AFM); Cc1 anchored on Au(111); Cc (E104C) anchored directly to Au-coated AFM tips by thiol-Au; retraction velocities 0.5 to 4 um/s; 50 mM phosphate buffer pH 6.5; Bell-Evans model
Target sequence in this assay (Q9FKS5 64-265): as above

Sequence of Y48pCMF cytochrome c E104C (P99999 1-48, stated change not applied): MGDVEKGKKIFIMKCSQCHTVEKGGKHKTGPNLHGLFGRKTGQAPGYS

| Substance | Kd [1] | koff [1] | kon [1] | conductance of current blinks (EC-STM static break junction, bias 0.8 V, 50 mM phosphate buffer pH 6.5), Gaussian fit of the main peak [2] | unbinding force Fr, centre of the Gaussian fit [3] | unbinding force Fr, mean [3] | rate of force-activated unbinding k^ou (Bell-Evans model) [4] |
| --- | --- | --- | --- | --- | --- | --- | --- |
| Y48pCMF cytochrome c (from UniProt P99999 1-105) (natural protein) | 357 nM | 0.00358 s⁻¹ | 10000 M⁻¹ s⁻¹ | – | – | – | – |
| Y48pCMF cytochrome c E104C (from UniProt P99999 1-105) (natural protein) | – | – | – | 7.4e-06 G0 | 77 pN | 91 pN | 48 s⁻¹ |
